Values of other authors in paper PMC5433096.

Molecular target: PhoB (Escherichia coli) (UniProt P0AFJ5)
UniProt P0AFJ5, sequence (P0AFJ5 whole entry): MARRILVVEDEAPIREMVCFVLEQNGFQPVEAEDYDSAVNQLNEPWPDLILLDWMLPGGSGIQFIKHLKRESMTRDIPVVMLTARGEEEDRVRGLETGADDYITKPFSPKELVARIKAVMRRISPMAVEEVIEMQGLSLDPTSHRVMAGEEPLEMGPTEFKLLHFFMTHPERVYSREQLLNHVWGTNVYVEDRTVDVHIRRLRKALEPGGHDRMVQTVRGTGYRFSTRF

PhoR (from UniProt P08400)
Kd: 3 µM
